Experimental data as given in patent US20100129369A1 (Eli Lilly, published 2010).

How the values were obtained:
Rat c-Met-Flis-Fc ECD [1] = molecular target: T1, Rat c-Met-Flis-Fc ECD (rat); experiment: SPR (Biacore), antibody captured
T1 construct: also called Rat cMet-ECD-Fc-Flis; rat c-Met ECD
Procedure: (§1) A Biacore® 2000 instrument is used to measure the binding kinetics of c-Met antibodies to human, cynomolgus monkey, and rat c-Met ECDs. Measurements are performed at 25° C. Samples are dissolved in HBS-EP buffer (150 mM sodium chloride, 3 mM EDTA, 0.005% (w/v) surfactant P-20, and 10 mM N-2-hydroxyethylpiperazine-N′-2-ethanesulfonic acid (HEPES) at pH 7.4; #BR-1001-88).
(§2) Binding is evaluated using multiple cycles. Each cycle is performed at a flow rate of 50 μL/min., and consists of the following steps: injection of about 10 μL of a c-Met antibody at 10 μg/mL aiming at a capture of 40-100 RUs, injection of 250 μL of human, cynomolgus, or rat c-Met-Flis-Fc ECD (starting at 100 nM and using two-fold serial dilutions for each cycle) followed by 20 min. for dissociation, and regeneration using about 30 μL of 10 mM glycine hydrochloride, pH 1.5. Association and dissociation rates for each cycle are evaluated using a “1:1 (Langmuir) binding” model in the BIAevaluation software, version 4.1.

mouse c-Met ECD = molecular target: T2, mouse c-Met ECD (mouse, UniProt P16056 25-931); experiment: ELISA, coated ECD (data not shown)
T2 construct: extracellular domain

Human c-Met-Flis-Fc ECD [2] = molecular target: T3, Human c-Met-Flis-Fc ECD (human); experiment: ELISA, coated ECD-Fc, antibody 0.000 ng/mL
T3 construct: also called human c-Met extracellular domain (ECD)-Fc-Flis fusion; Human cMet-ECD-Fc-Flis
Procedure: (§3) Wells of 96-well EIA/RIA high binding plates (Costar, #2592) are coated with 100 μL of 1 μg/mL human c-Met extracellular domain (ECD)-Fc-Flis fusion (SEQ ID NO:72), RON-ECD-Fc (R&D Systems, #1947-MS), or PlexinA2-ECD-Fc (Abnova, Taipei, Taiwan #H00005362-P01) in coating buffer (BioFX Labs, # COAT-1000-01) overnight at 4° C. […] After the plates are washed, 100 μL/well of substrate solution (BioFx, #TMBW-1000-01) are added and the plates are incubated for 10 min. at room temperature. 100 μL/well of stop solution (BioFx, # LSTP-1000-01) are added to stop the reaction. The colorimetric signals are developed and read at 450 nm using a SpectraMax 190 plate reader (Molecular Devices, Sunnyvale, Calif.). c-Met antibody binding to c-Met, RON and PlexinA2 ECDs is proportional to color signal production.

Human c-Met-Flis-Fc ECD [3] = molecular target: T3, Human c-Met-Flis-Fc ECD; experiment: ELISA, coated ECD-Fc, antibody 0.002 ng/mL
Procedure: as §3

Human c-Met-Flis-Fc ECD [4] = molecular target: T3, Human c-Met-Flis-Fc ECD; experiment: ELISA, coated ECD-Fc, antibody 0.010 ng/mL
Procedure: as §3

Human c-Met-Flis-Fc ECD [5] = molecular target: T3, Human c-Met-Flis-Fc ECD; experiment: ELISA, coated ECD-Fc, antibody 0.060 ng/mL
Procedure: as §3

Human c-Met-Flis-Fc ECD [6] = molecular target: T3, Human c-Met-Flis-Fc ECD; experiment: ELISA, coated ECD-Fc, antibody 0.357 ng/mL
Procedure: as §3

Human c-Met-Flis-Fc ECD [7] = molecular target: T3, Human c-Met-Flis-Fc ECD; experiment: ELISA, coated ECD-Fc, antibody 2.143 ng/mL
Procedure: as §3

Human c-Met-Flis-Fc ECD [8] = molecular target: T3, Human c-Met-Flis-Fc ECD; experiment: ELISA, coated ECD-Fc, antibody 12.860 ng/mL
Procedure: as §3

Human c-Met-Flis-Fc ECD [9] = molecular target: T3, Human c-Met-Flis-Fc ECD; experiment: ELISA, coated ECD-Fc, antibody 77.160 ng/mL
Procedure: as §3

Human c-Met-Flis-Fc ECD [10] = molecular target: T3, Human c-Met-Flis-Fc ECD; experiment: ELISA, coated ECD-Fc, antibody 462.963 ng/mL
Procedure: as §3

Human c-Met-Flis-Fc ECD [11] = molecular target: T3, Human c-Met-Flis-Fc ECD; experiment: ELISA, coated ECD-Fc, antibody 2777.778 ng/mL
Procedure: as §3

Human c-Met-Flis-Fc ECD [12] = molecular target: T3, Human c-Met-Flis-Fc ECD; experiment: ELISA, coated ECD-Fc, antibody 16666.667 ng/mL
Procedure: as §3

Human c-Met-Flis-Fc ECD [13] = molecular target: T3, Human c-Met-Flis-Fc ECD; experiment: ELISA, coated ECD-Fc, antibody 100000.000 ng/mL
Procedure: as §3

Human c-Met-Flis-Fc ECD [14] = molecular target: T3, Human c-Met-Flis-Fc ECD; experiment: SPR Biacore, antibody captured, ECD-Fc analyte, 1:1 model
Procedure: as §1, §2

[15] = molecular target: T4, Cynomolgus Monkey c-Met-Flis-Fc ECD (cynomolgus monkey); experiment: as above
T4 construct: also called Cynomolgus Monkey cMet-ECD-Fc-Flis; cynomolgus monkey c-Met ECD
Procedure: as §1, §2

Rat c-Met-Flis-Fc ECD [16] = molecular target: T1, Rat c-Met-Flis-Fc ECD; experiment: SPR Biacore, antibody captured, heterogeneous ligand model, first affinity
Procedure: as §1
(§4) Binding is evaluated using multiple cycles. Each cycle is performed at a flow rate of 50 μL/min., and consists of the following steps: injection of about 10 μL of a c-Met antibody at 10 μg/mL aiming at a capture of 40-100 RUs, injection of 250 μL of human, cynomolgus, or rat c-Met-Flis-Fc ECD (starting at 100 nM and using two-fold serial dilutions for each cycle) followed by 20 min. for dissociation, and regeneration using about 30 μL of 10 mM glycine hydrochloride, pH 1.5. […]

Rat c-Met-Flis-Fc ECD [17] = molecular target: T1, Rat c-Met-Flis-Fc ECD; experiment: SPR Biacore, antibody captured, heterogeneous ligand model, second affinity
Procedure: as §1, §4

T4 sequence (chain, as listed by the source limits assumed): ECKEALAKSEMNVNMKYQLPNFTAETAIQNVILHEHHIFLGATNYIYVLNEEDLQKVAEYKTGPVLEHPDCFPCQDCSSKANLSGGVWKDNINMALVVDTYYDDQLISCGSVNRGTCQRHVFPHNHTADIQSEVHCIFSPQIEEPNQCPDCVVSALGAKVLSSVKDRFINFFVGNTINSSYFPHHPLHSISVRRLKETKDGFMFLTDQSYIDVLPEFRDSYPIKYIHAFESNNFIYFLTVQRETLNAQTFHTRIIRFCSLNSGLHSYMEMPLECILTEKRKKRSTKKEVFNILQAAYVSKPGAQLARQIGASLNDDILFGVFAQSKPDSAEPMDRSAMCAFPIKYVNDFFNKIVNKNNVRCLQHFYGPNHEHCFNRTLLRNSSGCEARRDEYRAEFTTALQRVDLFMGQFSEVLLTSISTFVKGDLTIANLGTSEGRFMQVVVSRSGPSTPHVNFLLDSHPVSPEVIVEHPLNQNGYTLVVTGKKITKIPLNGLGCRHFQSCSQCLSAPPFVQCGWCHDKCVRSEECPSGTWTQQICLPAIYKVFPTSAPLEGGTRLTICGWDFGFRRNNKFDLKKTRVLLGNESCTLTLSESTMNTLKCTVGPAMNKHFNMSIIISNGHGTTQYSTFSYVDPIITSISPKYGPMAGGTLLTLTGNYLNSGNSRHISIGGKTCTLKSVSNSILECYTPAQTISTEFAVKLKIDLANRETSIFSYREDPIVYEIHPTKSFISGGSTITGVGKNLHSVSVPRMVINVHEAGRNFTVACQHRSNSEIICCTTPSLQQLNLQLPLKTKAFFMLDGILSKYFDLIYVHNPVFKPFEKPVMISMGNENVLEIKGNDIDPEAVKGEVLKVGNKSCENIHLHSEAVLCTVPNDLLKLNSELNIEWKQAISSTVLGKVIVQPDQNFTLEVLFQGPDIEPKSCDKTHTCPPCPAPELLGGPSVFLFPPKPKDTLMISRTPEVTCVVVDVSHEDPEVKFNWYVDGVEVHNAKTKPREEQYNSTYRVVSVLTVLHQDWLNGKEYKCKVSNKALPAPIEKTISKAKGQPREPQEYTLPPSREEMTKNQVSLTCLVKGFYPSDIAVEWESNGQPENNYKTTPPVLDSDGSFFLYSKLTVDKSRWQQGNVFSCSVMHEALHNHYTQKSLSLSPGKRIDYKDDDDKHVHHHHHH
T1 sequence (chain, as listed by the source limits assumed): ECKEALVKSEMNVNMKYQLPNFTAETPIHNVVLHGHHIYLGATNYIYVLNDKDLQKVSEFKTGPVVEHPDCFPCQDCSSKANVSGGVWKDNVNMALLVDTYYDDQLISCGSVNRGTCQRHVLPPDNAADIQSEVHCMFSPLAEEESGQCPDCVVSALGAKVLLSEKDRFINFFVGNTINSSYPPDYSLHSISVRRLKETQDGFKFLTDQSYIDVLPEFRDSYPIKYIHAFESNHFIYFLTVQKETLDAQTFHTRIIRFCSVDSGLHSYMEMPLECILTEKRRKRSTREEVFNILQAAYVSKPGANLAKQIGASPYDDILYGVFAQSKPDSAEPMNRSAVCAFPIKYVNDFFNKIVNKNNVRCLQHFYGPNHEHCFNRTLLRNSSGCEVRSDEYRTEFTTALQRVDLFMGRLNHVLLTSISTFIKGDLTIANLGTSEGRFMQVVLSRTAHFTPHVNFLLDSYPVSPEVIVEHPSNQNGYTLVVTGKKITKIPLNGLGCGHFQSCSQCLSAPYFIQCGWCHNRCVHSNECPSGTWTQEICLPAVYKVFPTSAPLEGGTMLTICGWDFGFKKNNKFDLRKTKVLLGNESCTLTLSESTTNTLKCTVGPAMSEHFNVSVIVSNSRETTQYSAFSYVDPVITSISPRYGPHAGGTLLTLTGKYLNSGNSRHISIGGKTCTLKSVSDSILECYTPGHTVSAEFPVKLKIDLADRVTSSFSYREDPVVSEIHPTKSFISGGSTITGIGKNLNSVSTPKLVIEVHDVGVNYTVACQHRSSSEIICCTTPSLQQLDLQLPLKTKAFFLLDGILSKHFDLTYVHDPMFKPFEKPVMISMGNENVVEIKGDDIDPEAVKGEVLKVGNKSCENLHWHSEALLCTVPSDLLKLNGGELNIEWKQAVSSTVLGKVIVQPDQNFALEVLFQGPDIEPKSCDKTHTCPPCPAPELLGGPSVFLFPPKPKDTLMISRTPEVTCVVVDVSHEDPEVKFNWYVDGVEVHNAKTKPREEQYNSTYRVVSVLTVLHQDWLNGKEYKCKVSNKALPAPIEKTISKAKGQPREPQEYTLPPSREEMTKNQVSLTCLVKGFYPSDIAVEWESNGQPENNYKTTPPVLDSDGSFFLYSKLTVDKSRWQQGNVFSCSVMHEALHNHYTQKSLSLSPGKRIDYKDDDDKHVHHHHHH
T3 sequence (chain, as listed by the source limits assumed): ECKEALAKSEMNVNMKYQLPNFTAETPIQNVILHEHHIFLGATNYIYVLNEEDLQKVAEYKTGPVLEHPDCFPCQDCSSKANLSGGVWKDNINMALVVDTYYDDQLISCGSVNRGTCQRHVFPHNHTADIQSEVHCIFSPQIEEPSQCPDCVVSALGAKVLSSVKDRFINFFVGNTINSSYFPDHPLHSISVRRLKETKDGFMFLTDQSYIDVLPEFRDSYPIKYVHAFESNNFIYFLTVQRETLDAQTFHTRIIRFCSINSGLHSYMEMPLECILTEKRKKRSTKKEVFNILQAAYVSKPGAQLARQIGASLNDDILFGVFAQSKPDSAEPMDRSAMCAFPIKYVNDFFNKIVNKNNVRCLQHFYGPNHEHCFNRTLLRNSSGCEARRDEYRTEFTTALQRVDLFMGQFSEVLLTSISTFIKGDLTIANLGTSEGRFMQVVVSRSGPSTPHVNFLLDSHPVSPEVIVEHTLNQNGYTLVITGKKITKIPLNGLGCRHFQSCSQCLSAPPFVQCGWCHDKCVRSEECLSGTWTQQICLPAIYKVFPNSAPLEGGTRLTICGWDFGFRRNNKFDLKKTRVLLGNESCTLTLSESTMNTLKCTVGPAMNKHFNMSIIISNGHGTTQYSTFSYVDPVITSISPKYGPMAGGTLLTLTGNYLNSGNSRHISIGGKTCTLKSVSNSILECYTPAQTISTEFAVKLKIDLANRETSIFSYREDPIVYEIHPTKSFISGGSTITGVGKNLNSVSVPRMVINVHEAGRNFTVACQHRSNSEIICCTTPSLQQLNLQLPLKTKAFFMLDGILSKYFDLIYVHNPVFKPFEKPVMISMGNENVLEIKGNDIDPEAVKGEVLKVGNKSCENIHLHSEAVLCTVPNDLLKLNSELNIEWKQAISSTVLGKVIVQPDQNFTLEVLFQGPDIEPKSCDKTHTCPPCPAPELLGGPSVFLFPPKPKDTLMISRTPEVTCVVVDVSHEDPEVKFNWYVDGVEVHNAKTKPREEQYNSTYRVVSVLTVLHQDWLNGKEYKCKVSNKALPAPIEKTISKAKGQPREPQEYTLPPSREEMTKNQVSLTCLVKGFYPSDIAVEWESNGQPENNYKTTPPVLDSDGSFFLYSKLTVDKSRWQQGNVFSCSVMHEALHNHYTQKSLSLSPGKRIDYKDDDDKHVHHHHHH
T2 sequence (P16056 25-931): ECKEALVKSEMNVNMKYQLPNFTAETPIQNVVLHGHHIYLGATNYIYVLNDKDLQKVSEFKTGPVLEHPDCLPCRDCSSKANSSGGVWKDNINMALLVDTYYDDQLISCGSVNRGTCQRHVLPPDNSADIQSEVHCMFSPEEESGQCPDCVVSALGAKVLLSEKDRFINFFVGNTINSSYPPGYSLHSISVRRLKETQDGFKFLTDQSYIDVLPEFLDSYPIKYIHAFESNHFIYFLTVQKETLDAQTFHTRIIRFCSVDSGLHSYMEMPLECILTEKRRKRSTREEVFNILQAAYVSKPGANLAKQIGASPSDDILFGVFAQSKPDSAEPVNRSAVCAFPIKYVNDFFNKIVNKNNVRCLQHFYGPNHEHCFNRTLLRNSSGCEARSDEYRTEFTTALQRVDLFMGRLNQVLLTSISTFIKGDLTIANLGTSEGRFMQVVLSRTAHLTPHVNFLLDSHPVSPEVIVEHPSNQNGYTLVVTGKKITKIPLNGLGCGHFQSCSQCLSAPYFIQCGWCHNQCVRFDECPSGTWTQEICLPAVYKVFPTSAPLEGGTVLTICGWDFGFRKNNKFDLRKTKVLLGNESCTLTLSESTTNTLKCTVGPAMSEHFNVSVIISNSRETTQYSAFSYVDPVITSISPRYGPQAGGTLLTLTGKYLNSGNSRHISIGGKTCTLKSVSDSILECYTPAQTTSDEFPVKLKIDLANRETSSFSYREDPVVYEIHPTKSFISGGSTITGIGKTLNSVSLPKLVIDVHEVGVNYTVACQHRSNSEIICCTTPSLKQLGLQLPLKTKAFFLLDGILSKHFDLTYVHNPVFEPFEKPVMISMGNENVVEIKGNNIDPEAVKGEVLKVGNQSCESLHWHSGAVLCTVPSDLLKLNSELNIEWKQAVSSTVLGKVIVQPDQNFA

Row | Binder | Average A450 nm (Human c-Met-Flis-Fc ECD [2]) [A450 nm] | Average A450 nm (Human c-Met-Flis-Fc ECD [3]) [A450 nm] | Average A450 nm (Human c-Met-Flis-Fc ECD [4]) [A450 nm] | Average A450 nm (Human c-Met-Flis-Fc ECD [5]) [A450 nm] | Average A450 nm (Human c-Met-Flis-Fc ECD [6]) [A450 nm] | Average A450 nm (Human c-Met-Flis-Fc ECD [7]) [A450 nm] | Average A450 nm (Human c-Met-Flis-Fc ECD [8]) [A450 nm] | Average A450 nm (Human c-Met-Flis-Fc ECD [9]) [A450 nm] | Average A450 nm (Human c-Met-Flis-Fc ECD [10]) [A450 nm] | Average A450 nm (Human c-Met-Flis-Fc ECD [11]) [A450 nm] | Average A450 nm (Human c-Met-Flis-Fc ECD [12]) [A450 nm] | Average A450 nm (Human c-Met-Flis-Fc ECD [13]) [A450 nm] | Kd (Human c-Met-Flis-Fc ECD [14]) [nM] | koff (Human c-Met-Flis-Fc ECD [14]) [s⁻¹] | kon (Human c-Met-Flis-Fc ECD [14]) [M⁻¹ s⁻¹] | Kd [15] [nM] | koff [15] [s⁻¹] | kon [15] [M⁻¹ s⁻¹] | other results
1 | C8-co-16 (antibody, human IgG2, kappa, V domains shown, Called IgG4, kappa) VH: QVQLVQSGAEVKKPGASVKVSCKASGYTFTDYYMHWVRQAPGQGLEWMGRVNPYRGSTTYNQKFEGRVTMTTDTSTSTAYMELRSLRSDDTAVYYCARANILDYWGQGTTVTVSS VL: DIQMTQSPSSLSASVGDRVTITCSVSSSVRSIYLHWYQQKPGKAPKLLIYSTSNLASGVPSRFSGSGSGTDFTLTISSLQPEDFATYYCQVYRGYPLTFGGGTKVEIKR | 0.335 | 0.369 | 0.374 | 0.446 | 0.907 | 2.89 | 4 | 4 | 4 | 4 | 4 | 4 | 0.3 | 3e-05 | 110000 | < 0.1 | < 1e-05 | 103000 | binding result (Rat c-Met-Flis-Fc ECD [1]): no binding; binding result (mouse c-Met ECD): no binding (tested: 100 nM)
2 | D11-S17Y (antibody, human IgG2, kappa, V domains shown, Human engineered IgG2, kappa) VH: QVQLVQSGAEVKKPGSSVKVSCKASGYTFTSRYIHWVRQAPGQGLEWMGWIYPVTGDTYYNEKFKGRVTITADKSTSTAYMELSSLRSEDTAVYYCARGYGAFYYWGQGTLVTVSS VL: EIVLTQSPGTLSLSPGERATLSCSVSSSISSTNLHWYQQKPGQAPRLLIYGTSYLASGIPDRFSGSGSGTDFTLTISRLEPEDFAVYYCQQWSSYPYSFGQGTKLEIKR | 0.315 | 0.309 | 0.314 | 0.374 | 0.789 | 2.14 | 4 | 4 | 4 | 4 | 4 | 4 | 4.2 | 0.00028 | 70000 | 5.1 | 0.00036 | 70000 | Kd (Rat c-Met-Flis-Fc ECD [16]): 286 nM; koff (Rat c-Met-Flis-Fc ECD [16]): 0.0189 s⁻¹; kon (Rat c-Met-Flis-Fc ECD [16]): 66000 M⁻¹ s⁻¹; Kd (Rat c-Met-Flis-Fc ECD [17]): 1.2 nM; koff (Rat c-Met-Flis-Fc ECD [17]): 0.0003 s⁻¹; kon (Rat c-Met-Flis-Fc ECD [17]): 250000 M⁻¹ s⁻¹
